Drawing on US20260193326A1 (published 2026), this text covers Kd, koff and kon for 12 molecules.

What all share (test): SPR, AAV amine-coupled to CM5 chip;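 further: nanobodies flowed as analyte at seven concentrations spanning 1–100 nM over immobilized AAV (500–800 RU), kinetic constants derived by fitting the binding curves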
For one assay, the target named is T1, AAV8 (adeno-associated virus 8).
T1 construct: also called adeno-associated virus serotype 8

In a further assay the target is T2, AAV2 (adeno-associated virus 2, UniProt P03135 1-735).
T2 construct: also called adeno-associated virus serotype 2

The next assay deals with T3, AAV9 (adeno-associated virus 9).
T3 construct: also called adeno-associated virus serotype 9

The next assay addresses T4, AAV5 (adeno-associated virus 5).
T4 construct: also called adeno-associated virus serotype 5

Numbering of substitutions follows the chain as printed.

Method for AAV2: (§1) AAV was amine-coupled to a CM5 sensor chip at a density of 500-800 response units (RU). Nanobodies were injected at seven concentrations (1-100 nM) with a flow rate of 45 μL/min, and chip regeneration was performed using glycine-HCl (pH 1.5). Binding curves at different nanobody concentrations were used to calculate kinetic parameters (Kₐ, Kd, KD) (Table 2 and FIG. 2).
Method for AAV5: as §1
Method for AAV8: as §1
Method for AAV9: as §1

B1: A4-051 (VHH)
VHH: VQLQESGGGLVQPGGSLRLSCAASGSSFVINTMGWYRRAPGKQRELVAAVTRGGSTNYADSVKGRFTISRDNAKNTVYLQMNSLRPEDTAVYYCHVDEVRQSSWTTSNLWGQGTQVTVSS
What is called Kd is the concentration at which binding is half-saturated. A high value points to a looser complex. In general, koff refers to the rate constant with which the complex falls apart. A high value points to a short-lived complex. What is called kon is the second-order rate constant of association. A low value points to slow association. For B1, the Kd with AAV8 is 791 nM; with AAV2, 907 nM; in the assay with AAV9, 712 nM; in the assay with AAV5, 748 nM. Besides, the koff in the assay with AAV8 came out at 0.00466 s⁻¹; in the assay with AAV2, 0.00325 s⁻¹; in the assay with AAV9, 0.00477 s⁻¹; with AAV5 it was 0.00507 s⁻¹. Moreover, the kon with AAV8 was determined as 5890 M⁻¹ s⁻¹; in the assay with AAV2 it was 3580 M⁻¹ s⁻¹; with AAV9 it was 6700 M⁻¹ s⁻¹; in the assay with AAV5 it was 6780 M⁻¹ s⁻¹.

B2: A4-054 (VHH)
VHH: B1 VHH with S27A, V29S, R38Q
Consider B2, for which the Kd was found to be 368 nM in the assay with AAV8, 1060 nM in the assay with AAV2, 28.9 nM with AAV9 and 213 nM with AAV5. Further, the koff with AAV8 is 0.0018 s⁻¹; with AAV2, 0.00114 s⁻¹; with AAV9, 0.00025 s⁻¹; in the assay with AAV5, 0.00163 s⁻¹. The kon with AAV8 is 4890 M⁻¹ s⁻¹; with AAV9, 8660 M⁻¹ s⁻¹; with AAV5, 7660 M⁻¹ s⁻¹.

B3: A4-098 (VHH)
VHH: VQLQESGGGLVQPGGSLRLSCIASGSIFSINTMGWYRQAPGKQRELVATITRGGNTNYGDSVKGRFTISRDNAKNTVYLQMNTLRPEDTAVYYCHVDEIRESSWTTSNLWGQGTQVTVSS
Take B3: the figures for the Kd in the assay with AAV8, with AAV9 and with AAV5 were 23.3 nM, 82.2 nM and 130 nM, respectively. Besides, the results for the koff in the assay with AAV8, in the assay with AAV9 and in the assay with AAV5 were 0.00018 s⁻¹, 0.0006 s⁻¹ and 0.00117 s⁻¹, respectively. The kon is 7740 M⁻¹ s⁻¹ in the assay with AAV8, 7300 M⁻¹ s⁻¹ in the assay with AAV9 and 9030 M⁻¹ s⁻¹ with AAV5.

B4: A4-071 (VHH)
VHH: B1 VHH with L10A, P13A, S27T, V29S, R38Q, A49T, A59G, S61F, S83T, V96L
On to B4, for which the Kd was found to be 16.4 nM with AAV8, 93 nM in the assay with AAV2, 30.9 nM in the assay with AAV9 and 9.46 nM in the assay with AAV5. Moreover, the koff with AAV8 is 0.00137 s⁻¹; with AAV2, 0.002 s⁻¹; with AAV9, 0.00176 s⁻¹; with AAV5, 0.00171 s⁻¹. Also, the kon with AAV8 came out at 83300 M⁻¹ s⁻¹; in the assay with AAV2, 21500 M⁻¹ s⁻¹; in the assay with AAV9, 57000 M⁻¹ s⁻¹; with AAV5, 181000 M⁻¹ s⁻¹.

B5: A4-064 (VHH)
VHH: VQLQESGGGLVQSGGSLRLSCAASGRNFSLNTVGWYRQAPGKQRELVATVTSGGGTNYAGSVKGRFTISRDNAKNTVYLQMNSLRPEDTAVYYCHVDEVRESTWTTSNLWGQGTQVTVSS
As for B5, the Kd with AAV8 came to 227 nM; with AAV2, 75.7 nM; in the assay with AAV9, 420 nM; with AAV5, 81.8 nM. The koff is 0.0017 s⁻¹ with AAV8, 0.0005 s⁻¹ in the assay with AAV2, 0.00128 s⁻¹ in the assay with AAV9 and 0.00046 s⁻¹ with AAV5. Moreover, the kon amounted to 7500 M⁻¹ s⁻¹ in the assay with AAV8, 6600 M⁻¹ s⁻¹ with AAV2, 3050 M⁻¹ s⁻¹ in the assay with AAV9 and 5620 M⁻¹ s⁻¹ with AAV5.

B6: A4-100 (VHH)
VHH: B1 VHH with S27I, R38Q, A49S, V50L, A73D, V77I, Q101E, S103T, L109I
Regarding B6, in the assay with AAV8, the dissociation constant (Kd) amounted to 36.2 nM, the koff was determined as 0.00356 s⁻¹ and the on-rate constant (kon) is 98300 M⁻¹ s⁻¹. Besides, in the assay with AAV9, the affinity, expressed as Kd, was 7.64 nM; the koff turned out to be 0.00126 s⁻¹; the association rate constant (kon) was found to be 165000 M⁻¹ s⁻¹. In the assay with AAV5, this molecule showed a Kd of 6.75 nM, a koff of 0.00124 s⁻¹ and an association rate constant (kon) of 184000 M⁻¹ s⁻¹.

B7: A4-056 (VHH)
VHH: B1 VHH with S27A, V29S, R38Q, L46K
On to B7, for which the equilibrium dissociation constant (Kd) was found to be 265 nM with AAV8, 224 nM in the assay with AAV2, 96.9 nM with AAV9 and 622 nM with AAV5. In addition, the koff is 0.00779 s⁻¹ in the assay with AAV8, 0.00485 s⁻¹ with AAV2, 0.00887 s⁻¹ with AAV9 and 0.00648 s⁻¹ with AAV5. For the same molecule, the kon stood at 29400 M⁻¹ s⁻¹ in the assay with AAV8, 21600 M⁻¹ s⁻¹ with AAV2, 91500 M⁻¹ s⁻¹ with AAV9 and 10400 M⁻¹ s⁻¹ with AAV5.

B8: A4-097 (VHH)
VHH: B3 VHH with I30A
Turning to B8, in the assay with AAV8, the affinity, expressed as Kd, was 12.4 nM; the koff turned out to be 0.00192 s⁻¹; the kon came to 155000 M⁻¹ s⁻¹. In the assay with AAV9, this molecule returned a Kd of 62.3 nM, an off-rate (koff) of 0.00816 s⁻¹ and a kon of 131000 M⁻¹ s⁻¹. Further, in the assay with AAV5, binding was put at a Kd of 578 nM, the koff was determined as 0.00544 s⁻¹ and the kon is 9410 M⁻¹ s⁻¹.

B9: A4-074 (VHH)
VHH: B1 VHH with P13S, S27M, V29S, I30L, R38Q, A49T, V50I, S55G, N57S, V99L
B9: the Kd in the assay with AAV8 is 19.2 nM; with AAV2 it was 14.3 nM; with AAV9, 6.03 nM; in the assay with AAV5 it was 4.64 nM. The koff with AAV8 came out at 0.00181 s⁻¹; with AAV2, 0.00157 s⁻¹; with AAV9, 0.00017 s⁻¹; with AAV5, 0.00081 s⁻¹. For the same molecule, the kon with AAV8 stood at 94100 M⁻¹ s⁻¹; in the assay with AAV2, 110000 M⁻¹ s⁻¹; with AAV9, 28200 M⁻¹ s⁻¹; with AAV5 it was 175000 M⁻¹ s⁻¹.

B10: A4-067 (VHH)
VHH: B5 VHH with S13T, N27A, V33M, Q43W, S52R, G55S, A73T, S83N, T103S
For B10, the Kd was 128 nM with AAV8, 16 nM with AAV2, 106 nM in the assay with AAV9 and 7.14 nM with AAV5. For the same molecule, the koff is 0.00044 s⁻¹ with AAV8, 3e-05 s⁻¹ with AAV2, 0.00035 s⁻¹ with AAV9 and 2e-05 s⁻¹ with AAV5. Besides, the kon is 3440 M⁻¹ s⁻¹ in the assay with AAV8, 1870 M⁻¹ s⁻¹ in the assay with AAV2, 3320 M⁻¹ s⁻¹ with AAV9 and 2800 M⁻¹ s⁻¹ with AAV5.

B11: A4-068 (VHH)
VHH: B5 VHH with S13T, N27A, V33M, Q43W, S52R, G55S, S83N, T103S
B11: the equilibrium dissociation constant (Kd) turned out to be 182 nM with AAV8, 11.9 nM with AAV2, 31.9 nM in the assay with AAV9 and 45.3 nM with AAV5. In addition, the koff with AAV8 was found to be 0.00436 s⁻¹; with AAV2 it was 0.00167 s⁻¹; with AAV9 it was 0.00349 s⁻¹; with AAV5 it was 0.00608 s⁻¹. Also, the kon with AAV8 turned out to be 24000 M⁻¹ s⁻¹; with AAV2 it was 141000 M⁻¹ s⁻¹; with AAV9, 109000 M⁻¹ s⁻¹; with AAV5, 134000 M⁻¹ s⁻¹.

B12: A4-072 (VHH)
VHH: B1 VHH with V11A, R38Q, L46F, A49T, A59G, D60E, S61F, V99L
For the molecule B12, the Kd came to 27.1 nM with AAV8, 3.93 nM with AAV2, 1.29 nM with AAV9 and 3.79 nM in the assay with AAV5. For the same molecule, the koff with AAV8 came to 0.00044 s⁻¹; with AAV2 it was 0.00021 s⁻¹; with AAV9 it was 0.00018 s⁻¹; with AAV5, 0.00038 s⁻¹. Moreover, the kon in the assay with AAV8 came to 16300 M⁻¹ s⁻¹; in the assay with AAV2, 53500 M⁻¹ s⁻¹; in the assay with AAV9, 140000 M⁻¹ s⁻¹; in the assay with AAV5, 100000 M⁻¹ s⁻¹.
